Measured values: paper doi:10.1101/2023.12.12.571160

Assays:
[1] = molecular target: prefusion-stabilized SARS-CoV-1 S2 subunit trimer (SARS-CoV-1); test: negative-stain EM
[2] = molecular target: prefusion-stabilized PRD-0038 S2 subunit trimer (PRD-0038 (clade 3 sarbecovirus)); test: negative-stain EM

Substance	stoichiometry N [1]	stoichiometry N [2]
prefusion-stabilized SARS-CoV-1 S2 subunit trimer (domain or fragment)	3	
prefusion-stabilized PRD-0038 S2 subunit trimer (domain or fragment)		3
